These results are taken from PMC10461225, “Creation of a Peptide Antagonist of the GFRAL–RET Receptor Complex for the Treatment of GDF15-Induced Malaise” (Journal of Medicinal Chemistry, 2023).

The term Kd denotes a measure of binding affinity in units of concentration.

Data set [1] has as its system Sprague–Dawley rats. The settings on record: rat, in vivo, ip, 6 mg/kg.
Description: In this set of experiments, rats were treated with the highly emetogenic chemotherapeutic agent, cisplatin. Using this gold-standard preclinical model of CINV, we first determined the effects of a single systemic dose of GRASP administered shortly before cisplatin.
Adult male Sprague–Dawley rats (Charles River) weighing ∼250–270 g on arrival (N = 158) were housed under a 12 h:12 h light/dark cycle in a temperature- and humidity-controlled vivarium (23 ± 1 °C). Animals were fed ad libitum with a standard chow diet (Purina LabDiet 5001) with ad libitum access to tap water and kaolin pellets (Research Diets, K50001) for at least 5 days before the start of the experiment. All animals were naïve to experimental drugs and test treatments before the beginning of the experiment. Rats were habituated in single-hanging wire cages and received saline IP injections every day for 1 week before the onset of the experiment. […]
Using a similar paradigm, the impact of GRASP on cisplatin-induced nausea and anorexia was assessed. […] Food intake and kaolin consumption were measured at 3, 6, and 24 h postinjection.
Food intake and kaolin consumption were analyzed using repeated measures 2 × 3 ANOVAs, 2 × 2 ANOVAs, or one-way ANOVAs followed by Tukey’s post hoc tests. All data were expressed as means ± SEM. […] All data were analyzed using Prism 9 GraphPad Software (San Diego, California).
Data set [2] addresses T1, recombinant human GFRAL (S19–E351) (Homo sapiens, UniProt Q6UXV0).
T1 construct: contained a truncated Ser19–Glu351 domain was used for all SPR experiments; His; purchased ACRO Biosystems GFA-H52H3; host or cells: HEK293 cells
T1 sequence (Q6UXV0 19-351): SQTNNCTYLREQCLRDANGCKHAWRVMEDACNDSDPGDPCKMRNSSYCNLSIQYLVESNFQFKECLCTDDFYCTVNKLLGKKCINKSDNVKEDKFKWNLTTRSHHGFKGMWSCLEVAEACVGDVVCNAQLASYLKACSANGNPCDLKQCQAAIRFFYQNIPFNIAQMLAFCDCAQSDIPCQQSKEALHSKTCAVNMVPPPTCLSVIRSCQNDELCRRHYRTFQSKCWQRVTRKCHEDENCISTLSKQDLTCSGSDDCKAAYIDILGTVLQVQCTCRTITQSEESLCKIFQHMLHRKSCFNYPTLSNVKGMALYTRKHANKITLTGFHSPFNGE
Put plainly: SPR, high-capacity carboxyl sensor with immobilised GFRAL, peptide or GDF15 as analyte. The settings on record: HEK293-derived recombinant human GDF15, TraceDrawer kinetic evaluation, read-out: binding affinity (KD) of GDF15 control to GFRAL. The protocol:
Peptide binding to a segment of recombinant human GFRAL containing the complete known binding domain of GDF15 and the remaining extracellular domain (S19–E351) of the receptor as defined by UniProt (Q6UXV0) was evaluated by SPR (Figure 1). Initial screening aimed to confirm GFRAL immobilization and system functionality by evaluating the dose–response profile to a commercial formulation of HEK293 cell-derived recombinant human GDF15. […] For example, Yang et al.[6] reported a KD of ∼1 nM for the interaction between untagged GDF15 and purified human GFRAL extracellular domain (ECD) and binding of GDF15 to HEK293 transfectants expressing human GFRAL-EDC (Ser19–Glu351) and GDF15 via SPR and flow cytometry, respectively.
The binding of each peptide to the ECD of GFRAL was initially confirmed from the results of carboxyl-sensor SPR (SI, Figure S9) with bound GFRAL–ECD. A broad range of binding affinities (KD values ranging from […]) was observed. […] We hypothesized this may be due to obstruction of the binding site of GFRAL–ECD in its immobilized state. Thus, we opted for a different SPR approach in which we conjugated GRASP to biotin and immobilized the peptide to the sensor surface, this time via biotin–streptavidin affinity. Increasing concentrations of GFRAL–ECD were then evaluated as the mobile phase against the immobilized GRASP. […]
(In SPR one partner is held on a chip, and binding of the other changes the refractive index at the surface.)

Data set [3] deals with Sprague–Dawley rats. Put plainly: GDF15-induced anorexia and pica (kaolin intake) in rats. Type of data set: in vivo, rat. From the text: In initial experiments, we examined whether central administration of GRASP (i.e., directly into the fourth ventricle or fourth ICV) would counteract the effects of centrally delivered GDF15 in rats. Because the AP/NTS is located on the dorsal surface of the hindbrain at the caudal end of the fourth ventricle, this route of administration facilitates targeted and selective drug delivery near the sites of GFRAL expression. To assess the impact of these interventions, we measured pica behavior, i.e., the ingestion of non-nutritive substances such as kaolin,[29] as this represents an accurate and reliable proxy for malaise in rats and has been used to examine the effects of agents known to cause nausea in humans.[29]−[31]
To increase the translational impact of this study and more closely mimic a potential clinical scenario, we conducted a dose–response study in which both GRASP and GDF15 were administered systemically to rats via the intraperitoneal (IP) route.
All systemic treatments were delivered by intraperitoneal (IP) injection.
To evaluate the impact of GRASP on GDF15-induced anorexia and nausea (proxied by kaolin ingestion) in rats (n = 10, 400–450 g), GRASP (300 and 3000 pmol), or vehicle control was administered centrally immediately before intraventricular infusion of GDF15 (30 pmol). […]
All data were expressed as means ± SEM.

Data set [4] concerns the target T2, Recombinant His-tagged human GFRAL (Ser19–Glu351) (human, UniProt Q6UXV0 19-351).
T2 construct: GDNF family receptor alpha-like (GFRAL), human, extracellular domain S19-E351 as defined by UniProt Q6UXV0; also called GFRAL–ECD; GFRAL (S19–E351); source: bought: ACRO Biosystems (GFA-H52H3), expressed in HEK293 cells
T2 sequence (looked up): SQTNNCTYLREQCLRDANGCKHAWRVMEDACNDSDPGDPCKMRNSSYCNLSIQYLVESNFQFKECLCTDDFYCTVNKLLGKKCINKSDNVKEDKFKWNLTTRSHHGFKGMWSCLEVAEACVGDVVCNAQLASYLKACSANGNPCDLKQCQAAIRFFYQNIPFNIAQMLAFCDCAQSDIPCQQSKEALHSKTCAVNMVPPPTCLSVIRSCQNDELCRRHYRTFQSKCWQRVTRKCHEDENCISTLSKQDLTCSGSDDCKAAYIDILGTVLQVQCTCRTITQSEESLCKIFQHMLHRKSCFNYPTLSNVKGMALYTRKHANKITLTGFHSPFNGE
Description: SPR; GFRAL (S19-E351) immobilised by amine coupling (EDC/NHS) on a high-capacity carboxyl sensor (Nicoya OpenSPR); peptides or GDF15 as analyte; HBSS pH 7.4 running buffer without BSA; 20 uL/min. The settings on record: both partners purified.

The target in data set [5] is purified human GFRAL extracellular domain (ECD). The note with it: untagged GDF15, purified human GFRAL ECD, SPR and flow cytometry, ref 6 (Yang et al.), read-out: reported KD of GDF15 for human GFRAL, cited from earlier work. The method, then:
Peptide binding to a segment of recombinant human GFRAL containing the complete known binding domain of GDF15 and the remaining extracellular domain (S19–E351) of the receptor as defined by UniProt (Q6UXV0) was evaluated by SPR (Figure 1). Initial screening aimed to confirm GFRAL immobilization and system functionality by evaluating the dose–response profile to a commercial formulation of HEK293 cell-derived recombinant human GDF15. […] GRASPCy5 binding was evaluated by flow cytometry and compared with results from untransfected HEK293 cells.
(A flow cytometer gives signals particle by particle.)

Where two headings read alike, the source gives them in different places.

As for “cis-diammineplatinum dichloride [cisplatin]”, the “kaolin consumption and anorexia induced by cisplatin” value with Sprague–Dawley rats [1] was “leads to significant kaolin consumption and anorexia”.

B1: Recombinant human growth differentiation factor 15 (GDF15) (ligand, UniProt Q99988 195-308, looked up)
chain: ARARNGDHCPLGPGRCCRLHTVRASLEDLGWADWVLSPREVQVTMCIGACPSQFRAANMHAQIKTSLHRLKPDTVPAPCCVPASYNPMVLIQKTDTGVSLQTYDDLLAKDCHCI
notes: Growth differentiation factor 15, human, HEK293-derived commercial recombinant protein; commercial GDF15 is commonly the mature C-terminal cytokine (a disulfide-linked dimer), so the limits should be checked with the supplier; source: bought: Abcam (ab302451), expressed in HEK293 cells
Consider B1, for which the Kd was 6 nM in data set [2], 6.02 nM in data set [4], 1 nM in data set [5] (listed as native ligand) and ~1 nM in data set [5]. Moreover, the “kaolin consumption and anorexia induced by GDF15, central” value in the data set on Sprague–Dawley rats [3] (GDF15 30 pmol central administration, vs vehicle) is “induced significant kaolin consumption and anorexia”. In addition, the “kaolin consumption and anorexia induced by GDF15, systemic” value with Sprague–Dawley rats [3] (GDF15 20 μg/kg IP) is “reliably induced kaolin consumption and modest, albeit statistically significant anorexia”.
